The source of these data is the RNAGym collection of RNA variant scans (doi:10.7554/elife.80360).

Sequences and labels used below:
B1: HDV Ribozyme (parent)
chain: GGCCGGCAUGGUCCCAGCCUCCUCGCUGGCGCCGGCUGGGCAACAUUCCGAGGGGACCGUCCCCUCGGUAAUGGCGAAUGGGACCCA

In this series the parent is B1. Kind of series: self-cleavage, relative activity (ratio to wild type); higher = more cleavage; co-transcriptional.
With C48A G53A, the self-cleavage is 1.05.

On to G6C C21U, for which the self-cleavage amounted to 0.0573.

Take C3A C26G: the self-cleavage was 0.415.

Take U27A U69G: the self-cleavage turned out to be 1.02.

As for G6C C64G, the self-cleavage is 0.344.

For C3G C64A, the self-cleavage came out at 0.528.

In the case of A43C C48G, the self-cleavage is 0.449.

For the variant A45G G54U, the self-cleavage was 1.17.

With C15U U60C, the self-cleavage stood at 0.969.

Turning to C18A U47C, the self-cleavage is 0.0536.

On to C19A, for which the self-cleavage is 0.123.

For G40A C44A, the self-cleavage turned out to be 0.692.

G5C G59C: the self-cleavage turned out to be 0.0791.

Take G28C U47G: the self-cleavage is 0.0536.

Take U65A A83C: the self-cleavage was determined as 0.504.

A42C A71U: the self-cleavage came to 0.166.

With C15U U69A, the self-cleavage was determined as 1.15.

Regarding C32G G74U, the self-cleavage was determined as 0.125.

On to C26U A87G, for which the self-cleavage amounted to 1.04.

On to G40U G73C, for which the self-cleavage was 0.166.

For the variant G28A C64G, the self-cleavage was determined as 0.108.

Take C32A C66A: the self-cleavage is 0.181.

Take C4A C32U: the self-cleavage worked out at 0.0489.

For U37G A43C, the self-cleavage is 0.133.

As for C36U A87C, the self-cleavage came to 0.778.

On to G31U C33U, for which the self-cleavage was found to be 0.125.

For the variant C13U C19G, the self-cleavage turned out to be 0.138.

Regarding C14G G53A, the self-cleavage is 0.86.

Turning to C3U A83C, the self-cleavage stood at 0.318.

Regarding C66G A70G, the self-cleavage is 0.831.

On to G28A G76U, for which the self-cleavage is 0.0923.

Consider A16U C86A, for which the self-cleavage was found to be 1.03.

Take C41U A42G: the self-cleavage was 0.872.

For C18U C26G, the self-cleavage came out at 0.869.

For the variant A83U C85A, the self-cleavage was 0.237.

For U27G C86A, the self-cleavage was found to be 0.767.

Regarding C84U C86U, the self-cleavage came out at 0.604.

Take C19A G40C: the self-cleavage was determined as 0.0587.

For the variant U27C U79C, the self-cleavage was found to be 0.101.

Consider C4A A43C, for which the self-cleavage amounted to 0.

Consider G68A U72C, for which the self-cleavage came out at 0.594.

In the case of G73C C75G, the self-cleavage is 0.0573.

Take C14A C64G: the self-cleavage was found to be 0.892.

Consider C7U C14A, for which the self-cleavage came out at 0.516.

U9G C63U: the self-cleavage was determined as 1.07.

For the variant U23G G54C, the self-cleavage came out at 0.598.

For C13G C75U, the self-cleavage came to 0.0594.

For G11A U72C, the self-cleavage was determined as 0.121.

For G31C G74U, the self-cleavage was found to be 0.143.

For the variant G5A U65G, the self-cleavage worked out at 0.

On to G55U U69G, for which the self-cleavage turned out to be 0.933.

For A16G G31U, the self-cleavage turned out to be 0.375.

In the case of C3U A51G, the self-cleavage amounted to 0.577.

In the case of C36U C84A, the self-cleavage stood at 0.489.

For the variant C19G C75G, the self-cleavage amounted to 0.032.

Regarding G81A C84A, the self-cleavage stood at 0.339.

As for A83U A87U, the self-cleavage was found to be 0.507.

With G28C C57A, the self-cleavage worked out at 0.

With G11A G55U, the self-cleavage turned out to be 0.328.

As for C41A U72C, the self-cleavage came to 0.653.

As to C62U C75A, the self-cleavage came out at 0.166.

For C14U G53U, the self-cleavage was 1.16.

Regarding G2A G76C, the self-cleavage is 0.225.

As for G1C C41U, the self-cleavage stood at 0.229.

On to U12C C75A, for which the self-cleavage came out at 0.166.

On to A42G A45U, for which the self-cleavage was 0.598.

As to C13G U27G, the self-cleavage stood at 0.396.

For the variant G10U A78C, the self-cleavage is 0.0499.

For the variant C15U G55U, the self-cleavage was 0.729.

In the case of U23A C58U, the self-cleavage was found to be 1.25.

On to G6C C24U, for which the self-cleavage was 0.

Take G34C G40U: the self-cleavage was 0.151.

For G29A A70U, the self-cleavage is 0.0739.

As for G5U C19U, the self-cleavage came out at 0.0923.

For C13G G29A, the self-cleavage amounted to 0.0573.

On to G11U U20C, for which the self-cleavage worked out at 0.0248.

As for G5U C66A, the self-cleavage worked out at 0.609.

With C26A A71U, the self-cleavage amounted to 0.785.

With C19U C85U, the self-cleavage stood at 0.22.

Take G50U A87U: the self-cleavage came to 0.85.

In the case of G5C C86A, the self-cleavage is 0.166.

Regarding G34A C57A, the self-cleavage came to 0.13.

For G39U A71C, the self-cleavage was found to be 0.308.

With C21U G34A, the self-cleavage amounted to 0.0225.

G6C U79C: the self-cleavage is 0.0405.

For A71G C85A, the self-cleavage turned out to be 0.674.

As to C44G A78G, the self-cleavage was 0.246.

Turning to G2A A77G, the self-cleavage stood at 0.141.

With G74C U79C, the self-cleavage is 0.181.

For the variant G74C U79A, the self-cleavage was 0.189.

With C3U G31A, the self-cleavage is 0.329.

For G59A C84A, the self-cleavage turned out to be 0.929.

For the variant G50A C66A, the self-cleavage was determined as 1.18.

Regarding G6U C86U, the self-cleavage is 0.633.

C18U C21G: the self-cleavage came out at 0.151.

In the case of C36A U47C, the self-cleavage worked out at 0.0519.

For C15G G50A, the self-cleavage amounted to 0.723.

C32A G73C: the self-cleavage worked out at 0.0906.

For the variant C22A A45C, the self-cleavage was 0.115.

With G1U C24U, the self-cleavage was found to be 0.409.

As to C7A G35A, the self-cleavage was found to be 0.0841.

On to G38A U47C, for which the self-cleavage is 0.0767.

For the variant G54A G80U, the self-cleavage worked out at 0.214.

As for U9G A83G, the self-cleavage is 0.525.

As to C24G C58U, the self-cleavage is 0.117.

Turning to G31C C66A, the self-cleavage is 0.405.

For C48G U72G, the self-cleavage turned out to be 0.369.

For the variant C3A U69G, the self-cleavage was determined as 0.567.

With C21U A78G, the self-cleavage amounted to 0.155.

Consider C33U U47A, for which the self-cleavage stood at 0.872.

Turning to C24U A45C, the self-cleavage was determined as 0.26.

Consider G31A G53U, for which the self-cleavage came out at 0.346.

Consider G1U G59U, for which the self-cleavage stood at 0.451.

Take C44A C61G: the self-cleavage worked out at 0.608.

As to U72G C75G, the self-cleavage worked out at 0.262.

For the variant C32U C62U, the self-cleavage was 1.13.

For the variant U12A G76U, the self-cleavage worked out at 0.906.

Regarding G40A C84G, the self-cleavage amounted to 0.594.

With C15A G38U, the self-cleavage stood at 0.

Turning to G1U U47G, the self-cleavage was 0.405.

As to G2U C86A, the self-cleavage is 0.152.

As for G34A G81U, the self-cleavage was determined as 0.07.

For C62U C85U, the self-cleavage is 0.964.

As for A8U G81A, the self-cleavage was 0.148.

With U47C C57U, the self-cleavage is 0.712.

For the variant U12A A56C, the self-cleavage was found to be 0.262.

On to C14A A56G, for which the self-cleavage came to 0.57.

As to G17U G31A, the self-cleavage was 0.107.

Regarding G40U G55C, the self-cleavage was 0.937.

In the case of C7G, the self-cleavage amounted to 0.315.

Take U37C C64G: the self-cleavage came out at 0.604.

Turning to A8C G52U, the self-cleavage is 0.566.

G2A U46A: the self-cleavage was 0.0601.

Turning to G6U C57G, the self-cleavage worked out at 0.491.

In the case of G25U G55C, the self-cleavage is 0.228.

Consider G2A C15U, for which the self-cleavage was determined as 0.113.

Take A43G G53C: the self-cleavage came to 0.554.

For the variant G31C U65G, the self-cleavage amounted to 0.48.

In the case of C21G U23G, the self-cleavage was found to be 0.0755.

In the case of G1A U46A, the self-cleavage was determined as 0.0755.

As for G39A A78G, the self-cleavage was 0.131.

For G5U U60G, the self-cleavage came to 0.151.

For the variant C21U G50A, the self-cleavage was determined as 0.253.

With C49U G68A, the self-cleavage came out at 0.987.

Take C21G G53A: the self-cleavage was determined as 0.0511.

As to G68A G80A, the self-cleavage amounted to 0.367.

Regarding G6C C41G, the self-cleavage came out at 0.

Take U9A A71U: the self-cleavage was found to be 0.688.

For the variant G10U C48U, the self-cleavage was 0.782.

Turning to U27C A87C, the self-cleavage was found to be 0.595.

As to G28A U65G, the self-cleavage worked out at 0.0386.

For C30U U72A, the self-cleavage amounted to 0.277.

As for C86G A87C, the self-cleavage was 1.04.

U47A A70G: the self-cleavage is 0.831.

In the case of A43C G74A, the self-cleavage came out at 0.509.

On to C3U A8U, for which the self-cleavage turned out to be 0.656.

Consider C4U G73C, for which the self-cleavage was 0.242.

With C61U G73U, the self-cleavage stood at 0.383.

Consider C61U G73C, for which the self-cleavage was 0.629.

G50A A83U: the self-cleavage worked out at 0.486.

For the variant U37A A77G, the self-cleavage came out at 0.415.

Turning to C19G A42C, the self-cleavage stood at 0.0978.

C7U G17A: the self-cleavage was found to be 0.332.

Turning to C36G G38C, the self-cleavage came out at 0.208.

Consider C14G C33G, for which the self-cleavage came to 0.

For C7A C14U, the self-cleavage was 0.447.

Regarding U37A C41A, the self-cleavage was 0.237.
